Values quoted from earlier work as cited in paper doi:10.1101/2022.06.23.497301.

Biological target: Asp96 (UniProt position 109, PLLLLDLALLV)
Conditions: resting (ground, closed) state of bacteriorhodopsin

## Bacteriorhodopsin (Halobacterium salinarum)
  pKa: ∼12.0
